In the supplement of paper PMC10567573:

B1: SPSB4 (parent)
chain: LDMDEGTLSFIVDGQYLGVAFRGL

Variants of: B1
Experiment: protein stability index of a GFP-peptide fusion (GPS, HEK-293T) (PSI 1-6); higher = more stable
Settings: c terminus: a fixed tail appended
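Also: lentivirally expressed fusions sorted by FACS into six bins by GFP to DsRed ratio, PSI derived from sequencing read proportions per bin multiplied by bin number.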

Variant	protein stability index
LDMDEGTLSFIVDGQYLDVAFRGL [G18D]	2.55
LDMDEGTLSFIVDGQYLVVAFRGL [G18V]	2.45
LDMDEGTLSFIVDGQYLHVAFRGL [G18H]	2.93
LDMDEGTLSFIVDGQYLEVAFRGL [G18E]	2.06
LDMDEGTLSFIVDGQYKGVAFRGL [L17K]	1.87
LDMDEGTLSFIVDGQYSGVAFRGL [L17S]	1.86
LDMDEGTLSFIVDGQYRGVAFRGL [L17R]	2.03
LDMDEGTLSFIVDGQYQGVAFRGL [L17Q]	2.09
LDMDEGTLSFIVDGQYNGVAFRGL [L17N]	1.51
LDMDEGTLSFIVDGQYMGVAFRGL [L17M]	1.67
LDMDEGTLSFIVDGQYYGVAFRGL [L17Y]	2.55
LDMDEGTLSFIVDGQYTGVAFRGL [L17T]	1.69
LDMDEGTLSFIVDGQYWGVAFRGL [L17W]	2.72
LDMDEGTLSFIVDGQYDGVAFRGL [L17D]	2.29
LDMDEGTLSFIVDGQYGGVAFRGL [L17G]	1.47
LDMDEGTLSFIVDGQYEGVAFRGL [L17E]	1.79
LDMDEGTLSFIVDGQYHGVAFRGL [L17H]	1.86
LDMDEGTLSFIVDGQYPGVAFRGL [L17P]	2.51
LDMDEGTLSFIVDGQYVGVAFRGL [L17V]	3.15
LDMDEGTLSFIVDGQYAGVAFRGL [L17A]	2.15
LDMDEGTLSFIVDGQYFGVAFRGL [L17F]	3.76
LDMDEGTLSFIVDGQYIGVAFRGL [L17I]	3.23
LDMDEGTLSFIDDGQYLGVAFRGL [V12D]	1.99
LDMDEGTLSFILDGQYLGVAFRGL [V12L]	1.26

Variant	protein stability index
LDMDEGTLSFIQDGQYLGVAFRGL [V12Q]	1.58
LDMDEGTLSFICDGQYLGVAFRGL [V12C]	3.24
LDMDEGTLSFINDGQYLGVAFRGL [V12N]	1.75
LDMDEGTLSFIEDGQYLGVAFRGL [V12E]	2.01
LDMDEGTLSFIHDGQYLGVAFRGL [V12H]	1.62
LDMDEGTLSFITDGQYLGVAFRGL [V12T]	2.35
LDMDEGTLSFIGDGQYLGVAFRGL [V12G]	1.94
LDMDEGTLSFIPDGQYLGVAFRGL [V12P]	1.7
LDMDEGTLSFIADGQYLGVAFRGL [V12A]	1.96
LDMDEGTLSFIKDGQYLGVAFRGL [V12K]	1.79
LDMDEGTLSFIRDGQYLGVAFRGL [V12R]	1.84
LDMDEGTLSFIWDGQYLGVAFRGL [V12W]	3.35
LDMDEGTLSFIMDGQYLGVAFRGL [V12M]	2.67
LDMDEGTLSFIYDGQYLGVAFRGL [V12Y]	2.36
LDMDEGTLSFIFDGQYLGVAFRGL [V12F]	1.92
LDMDEGTLSFISDGQYLGVAFRGL [V12S]	1.8
LDMDEGTLSFPVDGQYLGVAFRGL [I11P]	2.25
LDMDEGTLSFYVDGQYLGVAFRGL [I11Y]	2.58
LDMDEGTLSFGVDGQYLGVAFRGL [I11G]	2.45
LDMDEGTLSFMVDGQYLGVAFRGL [I11M]	2.28
LDMDEGTLSFFVDGQYLGVAFRGL [I11F]	4.16
LDMDEGTLSFEVDGQYLGVAFRGL [I11E]	1.39
LDMDEGTLSFVVDGQYLGVAFRGL [I11V]	1.47
LDMDEGTLSFNVDGQYLGVAFRGL [I11N]	2.49

Variant	protein stability index
LDMDEGTLSFRVDGQYLGVAFRGL [I11R]	2.4
LDMDEGTLSFLVDGQYLGVAFRGL [I11L]	3.07
LDMDEGTLSFDVDGQYLGVAFRGL [I11D]	1.68
LDMDEGTLSFWVDGQYLGVAFRGL [I11W]	1.56
LDMDEGTLSFHVDGQYLGVAFRGL [I11H]	3.77
LDMDEGTLSFQVDGQYLGVAFRGL [I11Q]	2.31
LDMDEGTLSFAVDGQYLGVAFRGL [I11A]	1.72
LDMDEGTLSFTVDGQYLGVAFRGL [I11T]	2.74
LDMDEGTLSFCVDGQYLGVAFRGL [I11C]	3.29
LDMDEGTLSFSVDGQYLGVAFRGL [I11S]	2.63
LDMDEGTLSFKVDGQYLGVAFRGL [I11K]	1.94
LDMDEGTLSFIVDFQYLGVAFRGL [G14F]	2.69
LDMDEGTLSFIVDPQYLGVAFRGL [G14P]	3.54
LDMDEGTLSFIVDAQYLGVAFRGL [G14A]	2.58
LDMDEGTLSFIVDWQYLGVAFRGL [G14W]	2.71
LDMDEGTLSFIVDVQYLGVAFRGL [G14V]	1.95
LDMDEGTLSFIVDHQYLGVAFRGL [G14H]	3.15
LDMDEGTLSFIVDRQYLGVAFRGL [G14R]	2.65
LDMDEGTLSFIVDEQYLGVAFRGL [G14E]	1.91
LDMDEGTLSFIVDSQYLGVAFRGL [G14S]	2.17
LDMDEGTLSFIVDMQYLGVAFRGL [G14M]	2.88
LDMDEGTLSFIVDTQYLGVAFRGL [G14T]	3.42
LDMDEGTLSFIVDYQYLGVAFRGL [G14Y]	2.38
LDMDEGTLSFIVDLQYLGVAFRGL [G14L]	2.11

Variant	protein stability index
LDMDEGTLSFIVDQQYLGVAFRGL [G14Q]	1.5
LDMDEGTLSFIVDDQYLGVAFRGL [G14D]	2.32
LDMDEGTLSFIVDIQYLGVAFRGL [G14I]	3.85
LDMDEGTLSFIVDKQYLGVAFRGL [G14K]	2.44
LDMDEGTLSFIVDNQYLGVAFRGL [G14N]	1.83
LDMDEGTLSFIVFGQYLGVAFRGL [D13F]	3.41
LDMDEGTLSFIVTGQYLGVAFRGL [D13T]	3.32
LDMDEGTLSFIVYGQYLGVAFRGL [D13Y]	3.11
LDMDEGTLSFIVKGQYLGVAFRGL [D13K]	2.61
LDMDEGTLSFIVVGQYLGVAFRGL [D13V]	2.9
LDMDEGTLSFIVWGQYLGVAFRGL [D13W]	2.55
LDMDEGTLSFIVSGQYLGVAFRGL [D13S]	2.61
LDMDEGTLSFIVIGQYLGVAFRGL [D13I]	2.6
LDMDEGTLSFIVLGQYLGVAFRGL [D13L]	2.94
LDMDEGTLSFIVHGQYLGVAFRGL [D13H]	2.94
LDMDEGTLSFIVQGQYLGVAFRGL [D13Q]	2.77
LDMDEGTLSFIVCGQYLGVAFRGL [D13C]	3.49
LDMDEGTLSFIVMGQYLGVAFRGL [D13M]	2.37
LDMDEGTLSFIVNGQYLGVAFRGL [D13N]	2.39
LDMDEGTLSFIVGGQYLGVAFRGL [D13G]	2.8
LDMDEGTLSFIVPGQYLGVAFRGL [D13P]	1.82
LDMDEGTLSFIVEGQYLGVAFRGL [D13E]	2.83
